According to US20240327535A1 (EISAI R AND D MANAGEMENT, published 2024):
Where a chain is given by its changes, count along the chain named. Names and notes keep the numbering of the source. Where two headings read alike, the source gives them in different places.

What was measured:
Experiment in all cases: Octet BLI; Fab 200 nM
[1] = biological target: T1, extracellular domain of human BCMA (human, UniProt Q02223 1-54)
T1 construct: amine-linked to Octet AR2G tips; also called hsBCMA; BCMA (human)
T1 sequence: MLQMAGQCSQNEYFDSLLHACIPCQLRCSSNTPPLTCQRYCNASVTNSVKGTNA

[2] = biological target: T2, extracellular domain of rhesus monkey BCMA (rhesus monkey, UniProt F7FFA0 1-53)
T2 construct: extracellular domain; also called RhBCMA

[3] = biological target: T1, extracellular domain of human BCMA; remark: listed apart in the source
[4] = biological target: T2, extracellular domain of rhesus monkey …; remark: listed apart in the source
[5] = biological target: T1, extracellular domain of human BCMA; remark: listed apart in the source
[6] = biological target: T2, extracellular domain of rhesus monkey …; remark: listed apart in the source

T2 sequence (F7FFA0 entry or part of it): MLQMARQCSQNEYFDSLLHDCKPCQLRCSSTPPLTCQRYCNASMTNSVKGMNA

B1: AB200_Fab (D99D) (Fab, V domains shown)
VH: QVQLVQSGAEVKKPGSSVKVSCKASGGTFSNYWMHWVRQAPGQGLEWMGATYRGHSDTYYNQKFKGRVTITADKSTSTAYMELSSLRSEDTAVYYCARGAIYDGYDVLDNWGQGTLVTVSS
VL: DIQMTQSPSSLSASVGDRVTITCSASQDISNYLNWYQQKPGKAPKLLIYYTSNLHSGVPSRFSGSGSGTDFTLTISSLQPEDFATYYCQQYRKLPWTFGQGTKLEIKR
Binder B1 has a Kd [1] of 3.45 nM, a koff [1] of 0.00058 s⁻¹ and a kon [1] of 170000 M⁻¹ s⁻¹. For the same binder, the Kd [2] was 5.89 nM, the koff [2] was 0.00118 s⁻¹ and the kon [2] was 200000 M⁻¹ s⁻¹.

B2: AB200-(2Vk31)_R2-CDR2-hs-v3 (Fab, V domains shown)
VH: QVQLVQSGAEVKKPGSSVKVSCKASGGTFTNYWIHWVRQAPGQGLEWMGGIIPIFGTANYAQKFQGRVTITADKSTSTAYMELSSLRSEDTAVYYCARGAVYHGYDVIDNWGQGTLVTVSS
VL: B1 VL with S24R, D28S, N31S, Y50A, H55Q, S56I, Y91F, K93R
With B2 the Kd [3] was 126 nM and the Kd [4] was 216 nM.

B3: AB200_Fab + D99H (Fab, V domains shown)
VH: B1 VH with D103H
VL: B1 VL
notes: also called AB200_D99H; D99H variant
B3 gave a Kd [1] of 2.08 nM, a koff [1] of 0.00037 s⁻¹ and a kon [1] of 180000 M⁻¹ s⁻¹. For the same binder, the Kd [2] was 5.7 nM, the koff [2] was 0.00105 s⁻¹ and the kon [2] was 180000 M⁻¹ s⁻¹.

B4: AB200-(2Vk31)_R2-CDR2-hs-v1 (Fab, V domains shown)
VH: B2 VH with V101I, Y102F
VL: B1 VL with S24R, D28S, N31S, Y50A, H55Q, S56I, Y91F, K93R
Work on B4 yielded a Kd [3] of 241 nM and a Kd [4] of 448 nM.

B5: AB200-(2Vk30)_R2-VH-v19 (Fab, V domains shown)
VH: B1 VH with M34I, A50G, G54S, D57T, G66S, D103H, Y105F, L108I
VL: B1 VL with S24R, D28S, N31S, Y50A, H55Q, S56I, K93R, L94I
B5 was tested, and the Kd [5] was 14.6 nM and the Kd [6] was 25.4 nM.

B6: AB200-(2Vk30)_R2-VH-v71 (Fab, V domains shown)
VH: B1 VH with M34I, G54I, Y59N, Q62E, G66S, Y102F, D103H, L108I
VL: B1 VL with S24R, D28S, N31S, Y50A, H55Q, S56I, K93R, L94I
With B6 the Kd [5] was 29.7 nM and the Kd [6] was 64.1 nM.

B7: AB200-(2Vk30)_R2-VH-v40 (Fab, V domains shown)
VH: B1 VH with S30T, M34I, G54I, D57T, N61A, G66S, D103H, Y105F, L108I
VL: B1 VL with S24R, D28S, N31S, Y50A, H55Q, S56I, K93R, L94I
With B7 the Kd [5] was 15.5 nM and the Kd [6] was 32.5 nM.

B8: AB200-(2Vk30)_R2-VH-v39 (Fab, V domains shown)
VH: B1 VH with S30T, M34I, G54I, N61A, Q62E, G66S, Y102F, D103H, L108I
VL: B1 VL with S24R, D28S, N31S, Y50A, H55Q, S56I, K93R, L94I
In the case of B8, the Kd [5] is reported as 3 nM and the Kd [6] is reported as 15.4 nM.

B9: AB200-(2Vk30)_R2-VH-v4 (Fab, V domains shown)
VH: B1 VH with S30T, M34I, G54S, Y59N, N61A, G66S, D103H, L108I, D109E
VL: B1 VL with S24R, D28S, N31S, Y50A, H55Q, S56I, K93R, L94I
With B9 the Kd [5] was 46.4 nM and the Kd [6] was 125 nM.

B10: AB200-(2Vk30)_R2-VH-v59 (Fab, V domains shown)
VH: B1 VH with M34I, A50G, G54I, N61A, G66S, D103H, L108I, D109E
VL: B1 VL with S24R, D28S, N31S, Y50A, H55Q, S56I, K93R, L94I
With B10 the Kd [5] was 37.8 nM and the Kd [6] was 121 nM.

B11: AB200_Fab + D99E (Fab, name in Kabat numbering, V domains shown)
VH: B1 VH with D103E
VL: B1 VL
With B11 the Kd [1] was 5.92 nM, the koff [1] was 0.00091 s⁻¹ and the kon [1] was 150000 M⁻¹ s⁻¹. The Kd [2] was 13.6 nM, the koff [2] was 0.00219 s⁻¹ and the kon [2] was 160000 M⁻¹ s⁻¹.

B12: AB200-(2Vk30)_R2-VH-v13 (Fab, V domains shown)
VH: B1 VH with T28S, M34I, A50G, G54S, N61A, G66S, D103H, L108I, D109E
VL: B1 VL with S24R, D28S, N31S, Y50A, H55Q, S56I, K93R, L94I
Work on B12 yielded a Kd [5] of 44.7 nM and a Kd [6] of 144 nM.

B13: AB200-(2Vk30)_R2-VH-v10 (Fab, V domains shown)
VH: B1 VH with F29Y, M34I, G54S, Y59N, F64Y, G66S, D103H, L108I, D109E
VL: B1 VL with S24R, D28S, N31S, Y50A, H55Q, S56I, K93R, L94I
B13 gave a Kd [5] of 85.8 nM and a Kd [6] of 330 nM.
